Measurements from publication PMC2688778 (Structure (London, England : 1993), 2009).
Positions count from the first letter of the chain named.

How the values were obtained:
Experiment in all cases: fluorescence anisotropy
RecE564 R858A = molecular target: T1, RecE564 R858A (Escherichia coli K12, UniProt P15032 564-866, R858A)
T1 sequence: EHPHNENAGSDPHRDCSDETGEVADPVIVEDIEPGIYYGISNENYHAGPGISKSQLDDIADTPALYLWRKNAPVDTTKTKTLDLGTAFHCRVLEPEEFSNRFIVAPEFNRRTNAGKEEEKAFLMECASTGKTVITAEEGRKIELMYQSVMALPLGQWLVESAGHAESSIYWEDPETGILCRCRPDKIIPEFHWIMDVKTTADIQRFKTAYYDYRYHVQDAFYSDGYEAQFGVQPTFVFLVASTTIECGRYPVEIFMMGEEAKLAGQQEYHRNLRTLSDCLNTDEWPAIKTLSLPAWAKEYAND

RecE564 T675A = molecular target: T2, RecE564 T675A (Escherichia coli K12, UniProt P15032 564-866, T675A)
T2 sequence: T1 sequence with T112A, A295R

RecE564 E729A = molecular target: T3, RecE564 E729A (Escherichia coli K12, UniProt P15032 564-866, E729A)
T3 sequence: T1 sequence with E166A, A295R

RecE564 del858-866 = molecular target: T4, RecE564 del858-866 (Escherichia coli K12, UniProt P15032 564-857, del858-866)
T4 sequence: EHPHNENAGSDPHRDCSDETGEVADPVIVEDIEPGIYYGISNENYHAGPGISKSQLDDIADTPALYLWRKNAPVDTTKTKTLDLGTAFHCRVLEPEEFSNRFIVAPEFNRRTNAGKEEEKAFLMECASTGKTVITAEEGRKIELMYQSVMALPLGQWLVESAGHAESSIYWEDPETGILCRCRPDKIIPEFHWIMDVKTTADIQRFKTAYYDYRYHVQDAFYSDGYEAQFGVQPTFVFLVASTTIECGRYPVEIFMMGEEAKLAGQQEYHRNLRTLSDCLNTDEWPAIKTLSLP

RecE564 F665A = molecular target: T5, RecE564 F665A (Escherichia coli K12, UniProt P15032 564-866, F665A)
T5 sequence: T1 sequence with F102A, A295R

RecE564 Y608A = molecular target: T6, RecE564 Y608A (Escherichia coli K12, UniProt P15032 564-866, Y608A)
T6 sequence: T1 sequence with Y45A, A295R

B1: F25 (dsDNA)
DNA 1: TAGAGCTTAATTGCTGAATCTGGTG
DNA 2: CACCAGATTCAGCAATTAAGCTCTA
Kd (RecE564 R858A): 77 ± 5 nM
Kd (RecE564 T675A): 650 ± 30 nM
Kd (RecE564 E729A): 57 ± 3 nM
Kd (RecE564 del858-866): 660 ± 80 nM
Kd (RecE564 F665A): 200 ± 20 nM
Kd (RecE564 Y608A): 160 ± 10 nM
